In patent publication US20090099029A1, “Methods and substrates for conducting assays” (Invitrogen Corporation, priority 2005, published 2009):

B1: CSF1R (protein)
chain: YKYKQKPKYQVRWKIIESYEGNSYTFIDPTQLPYNEKWEFPRNNLQFGKTLGAGAFGKVVEATAFGLGKEDAVLKVAVKMLKSTAHADEKEALMSELKIMSHLGQHENIVNLLGACTHGGPVLVITEYCCYGDLLNFLRRKAEAMLGPSLSPGQDPEGGVDYKNIHLEKKYVRRDSGFSSQGVDTYVEMRPVSTSSNDSFSEQDLDKEDGRPLELRDLLHFSSQVAQGMAFLASKNCIHRDVAARNVLLTNGHVAKIGDFGLARDIMNDSNYIVKGNARLPVKWMAPESIFDCVYTVQSDVWSYGILLWEIFSLGLNPYPGILVNSKFYKLVKDGYQMAQPAFAPKNIYSIMQACWALEPTHRPTFQQICSFLQEQAQEDRRERDYTNLPSSSRSGGSGSSSSELEEESSSEHLTCCEQGDIAQPLLQPNNYQFC
modifications: left off: small tags and cut ends
B2: MATK(HYL) (protein)
chain: MQGHFPAERREGRPRRGTRGQQQLLVSPRFLRAWHPPPVSARMPTRRWAPGTQCITKCEHTRPKPGELAFRKGDVVTILEACENKSWYRVKHHTSGQEGLLAAGALREREALSADPKLSLMPWFHGKISGQEAVQQLQPPEDGLFLVRESARHPGDYVLCVSFGRDVIHYRVLHRDGHLTIDEAVFFCNLMDMVEHYSKDKGAICTKLVRPKRKHGTKSAEEELARAGWLLNLQHLTLGAQIGEGEFGAVLQGEYLGQKVAVKNIKCDVTAQAFLDETAVMTKMQHENLVRLLGVILHQGLYIVMEHVSKGNLVNFLRTRGRALVNTAQLLQFSLHVAEGMEYLESKKLVHRDLAARNILVSEDLVAKVSDFGLAKAERKGLDSSRLPVKWTAPEALKHGKFTSKSDVWSFGVLLWEVFSYGRAPYPKMSLKEVSEAVEKGYRMEPPEGCPGPVHVLMSSCWEAEPARRPPFRKLAEKLARELRSAGAPASVSGQDADGSTSPRSQEP
modifications: left off: small tags and cut ends
B3: ZAP70 (protein)
chain: MPDPAAHLPFFYGSISRAEAEEHLKLAGMADGLFLLRQCLRSLGGYVLSLVHDVRFHHFPIERQLNGTYAIAGGKAHCGPAELCEFYSRDPDGLPCNLRKPCNRPSGLEPQPGVFDCLRDAMVRDYVRQTWKLEGEALEQAIISQAPQVEKLIATTAHERMPWYHSSLTREEAERKLYSGAQTDGKFLLRPRKEQGTYALSLIYGKTVYHYLISQDKAGKYCIPEGTKFDTLWQLVEYLKLKADGLIYCLKEACPNSSASNASGAAAPTLPAHPSTLTHPQRRIDTLNSDGYTPEPARITSPDKPRPMPMDTSVYESPYSDPEELKDKKLFLKRDNLLIADIELGCGNFGSVRQGVYRMRKKQIDVAIKVLKQGTEKADTEEMMREAQIMHQLDNPYIVRLIGVCQAEALMLVMEMAGGGPLHKFLVGKREEIPVSNVAELLHQVSMGMKYLEEKNFVHRDLAARNVLLVNRHYAKISDFGLSKALGADDSYYTARSAGKWPLKWYAPECINFRKFSSRSDVWSYGVTMWEALSYGQKPYKKMKGPEVMAFIEQGKRMECPPECPPELYALMSDCWIYKWEDRPDFLTVEQRMRACYYSLASKVEGPPGSTQKAEAACA
modifications: left off: small tags and cut ends
B4: AKT2 (protein)
chain: MNEVSVIKEGWLHKRGEYIKTWRPRYFLLKSDGSFIGYKERPEAPDQTLPPLNNFSVAECQLMKTERPRPNTFVIRCLQWTTVIERTFHVDSPDEREEWMRAIQMVANSLKQRAPGEDPMDYKCGSPSDSSTTEEMEVAVSKARAKVTMNDFDYLKLLGKGTFGKVILVREKATGRYYAMKILRKEVIIAKDEVAHTVTESRVLQNTRHPFLTALKYAFQTHDRLCFVMEYANGGELFFHLSRERVFTEERARFYGAEIVSALEYLHSRDVVYRDIKLENLMLDKDGHIKITDFGLCKEGISDGATMKTFCGTPEYLAPEVLEDNDYGRAVDWWGLGVVMYEMMCGRLPFYNQDHERLFELILMEEIRFPRTLSPEAKSLLAGLLKKDPKQRLGGGPSDAKEVMEHRFFLSINWQDVVQKKLLPPFKPQVTSEVDTRYFDDEFTAQSITITPPDRYDSLGLLELDQRTHFPQFSYSASIRE
modifications: left off: small tags and cut ends
B5: ADRBK2(GRK3) (protein, UniProt P35626 1-688, looked up)
G protein-coupled receptor …: MADLEAVLADVSYLMAMEKSKATPAARASKRIVLPEPSIRSVMQKYLAERNEITFDKIFNQKIGFLLFKDFCLNEINEAVPQVKFYEEIKEYEKLDNEEDRLCRSRQIYDAYIMKELLSCSHPFSKQAVEHVQSHLSKKQVTSTLFQPYIEEICESLRGDIFQKFMESDKFTRFCQWKNVELNIHLTMNEFSVHRIIGRGGFGEVYGCRKADTGKMYAMKCLDKKRIKMKQGETLALNERIMLSLVSTGDCPFIVCMTYAFHTPDKLCFILDLMNGGDLHYHLSQHGVFSEKEMRFYATEIILGLEHMHNRFVVYRDLKPANILLDEHGHARISDLGLACDFSKKKPHASVGTHGYMAPEVLQKGTAYDSSADWFSLGCMLFKLLRGHSPFRQHKTKDKHEIDRMTLTVNVELPDTFSPELKSLLEGLLQRDVSKRLGCHGGGSQEVKEHSFFKGVDWQHVYLQKYPPPLIPPRGEVNAADAFDIGSFDEEDTKGIKLLDCDQELYKNFPLVISERWQQEVTETVYEAVNADTDKIEARKRAKNKQLGHEEDYALGKDCIMHGYMLKLGNPFLTQWQRRYFYLFPNRLEWRGEGESRQNLLTMEQILSVEETQIKDKKCILFRIKGGKQFVLQCESDPEFVQWKKELNETFKEAQRLLRRAPKFLNKPRSGTVELPKPSLCHRNSNGL
B6: PTK2(FAK) (protein)
chain: MAAAYLDPNLNHTPNSSTKTHLGTGMERSPGAMERVLKVFHYFESNSEPTTWASIIRHGDATDVRGIIQKIVDSHKVKHVACYGFRLSHLRSEEVHWLHVDMGVSSVREKYELAHPPEEWKYELRIRYLPKGFLNQFTEDKPTLNFFYQQVKSDYMLEIADQVDQEIALKLGCLEIRRSYWEMRGNALEKKSNYEVLEKDVGLKRFFPKSLLDSVKAKTLRKLIQQTFRQFANLNREESILKFFEILSPVYRFDKECFKCALGSSWIISVELAIGPEEGISYLTDKGCNPTHLADFTQVQTIQYSNSEDKDRKGMLQLKIAGAPEPLTVTAPSLTIAENMADLIDGYCRLVNGTSQSFIIRPQKEGERALPSIPKLANSEKQGMRTHAVSVSETDDYAEIIDEEDTYTMPSTRDYEIQRERIELGRCIGEGQFGDVHQGIYMSPENPALAVAIKTCKNCTSDSVREKFLQEALTMRQFDHPHIVKLIGVITENPVWIIMELCTLGELRSFLQVRKYSLDLASLILYAYQLSTALAYLESKRFVHRDIAARNVLVSSNDCVKLGDFGLSRYMEDSTYYKASKGKLPIKWMAPESINFRRFTSASDVWMFGVCMWEILMHGVKPFQGVKNNDVIGRIENGERLPMPPNCPPTLYSLMTKCWAYDPSRRPRFTELKAQLSTILEEEKAQQEERMRMESRRQATVSWDSGGSDEAPPKPSRPGYPSPRSSEGFYPSPQHMVQTNHYQVSGYPGSHGITAMAGSIYPGQASLLDQTDSWNHRPQEIAMWQPNVEDSTVLDLRGIGQVLPTHLMEERLIRQQQEMEEDQRWLEKEERFLKPDVRLSRGSIDREDGSLQGPIGNQHIYQPVGKPDPAAPPKKPPRPGAPGHLGSLASLSSPADSYNEGVKLQPQEISPPPTANLDRSNDKVYENVTGLVKAVIEMSSKIQPAPPEEYVPMVKEVGLALRTLLATVDETIPLLPASTHREIEMAQKLLNSDLGELINKMKLAQQYVMTSLQQEYKKQMLTAAHALAVDAKNLLDVIDQARLKMLGQTRPH
modifications: left off: a dimerising Fc or GST
B7: TEC (protein)
chain: MNFNTILEEILIKRSQQKKKTSPLNYKERLFVLTKSMLTYYEGRAEKKYRKGFIDVSKIKCVEIVKNDDGVIPCQNKYPFQVVHDANTLYIFAPSPQSRDLWVKKLKEEIKNNNNIMIKYHPKFWTDGSYQCCRQTEKLAPGCEKYNLFESSIRKALPPAPETKKRRPPPPIPLEEEDNSEEIVVAMYDFQAAEGHDLRLERGQEYLILEKNDVHWWRARDKYGNEGYIPSNYVTGKKSNNLDQYEWYCRNMNRSKAEQLLRSEDKEGGFMVRDSSQPGLYTVSLYTKFGGEGSSGFRHYHIKETTTSPKKYYLAEKHAFGSIPEIIEYHKHNAAGLVTRLRYPVSVKGKNAPTTAGFSYEKWEINPSELTFMRELGSGLFGVVRLGKWRAQYKVAIKAIREGAMCEEDFIEEAKVMMKLTHPKLVQLYGVCTQQKPIYIVTEFMERGCLLNFLRQRQGHFSRDVLLSMCQDVCEGMEYLERNSFIHRDLAARNCLVSEAGVVKVSDFGMARYVLDDQYTSSSGAKFPVKWCPPEVFNYSRFSSKSDVWSFGVLMWEVFTEGRMPFEKYTNYEVVTMVTRGHRLYQPKLASNYVYEVMLRCWQEKPEGRPSFEDLLRTIDELVECEETFGR
modifications: left off: small tags and cut ends
B8: JAK3 (protein)
chain: ISSDYELLSDPTPGALAPRDGLWNGAQLYACQDPTIFEERHLKYISQLGKGNFGSVELCRYDPLGDNTGALVAVKQLQHSGPDQQRDFQREIQILKALHSDFIVKYRGVSYGPGRQSLRLVMEYLPSGCLRDFLQRHRARLDASRLLLYSSQICKGMEYLGSRRCVHRDLAARNILVESEAHVKIADFGLAKLLPLDKDYYVVREPGQSPIFWYAPESLSDNIFSRQSDVWSFGVVLYELFTYCDKSCSPSAEFLRMMGCERDVPALCRLLELLEEGQRLPAPPACPAEVHELMKLCWAPSPQDRPSFSALGPQLDMLWSGSRGCETHAFTAHPEGKHHSLSFS
modifications: left off: a dimerising Fc or GST
B9: AKT3 (protein)
chain: MSDVTIVKEGWVQKRGEYIKNWRPRYFLLKTDGSFIGYKEKPQDVDLPYPLNNFSVAKCQLMKTERPKPNTFIIRCLQWTTVIERTFHVDTPEEREEWTEAIQAVADRLQRQEEERMNCSPTSQIDNIGEEEMDASTTHHKRKTMNDFDYLKLLGKGTFGKVILVREKASGKYYAMKILKKEVIIAKDEVAHTLTESRVLKNTRHPFLTSLKYSFQTKDRLCFVMEYVNGGELFFHLSRERVFSEDRTRFYGAEIVSALDYLHSGKIVYRDLKLENLMLDKDGHIKITDFGLCKEGITDAATMKTFCGTPEYLAPEVLEDNDYGRAVDWWGLGVVMYEMMCGRLPFYNQDHEKLFELILMEDIKFPRTLSSDAKSLLSGLLIKDPNKRLGGGPDDAKEIMRHSFFSGVNWQDVYDKKLVPPFKPQVTSETDTRYFDEEFTAQTITITPPEKYDEDGMDCMDNERRPHFPQFSYSASGRE
modifications: left off: small tags and cut ends

What follows are molecules tested on kinases of Table 6 on Myelin Basic Protein (MBP) (assay: Kinase assay using MBP substrate, ProQ Diamond stain (Table 6)). Conditions: kinase printed on MBP-coated slide; 20 uM ATP, 30° C.; ProQ Diamond Microarray Stain; graded Strong/Weak/Negative.
Assay type: biochemical
Outline: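 Bovine dephosphorylated MBP coated on aldehyde- or epoxy-glass slides, kinases printed on top; reaction buffer pH 7.5 with 4 mM MgCl2, 20 uM ATP, 5% DMSO, ± inhibitor, at 30° C. Phosphorylation detected by ProQ Diamond stain, 30 min in dark.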
With B1 the “MBP Kinase Activity” value was “Strong”.
In the case of B2, the “MBP Kinase Activity” value is reported as “Negative”.
With B3 the “MBP Kinase Activity” value was “Negative”.
For B4, the “MBP Kinase Activity” value was “Strong”.
In the case of B5, the “MBP Kinase Activity” value is reported as “Negative”.
For B6, the “MBP Kinase Activity” value was “Negative”.
With B7 the “MBP Kinase Activity” value was “Negative”.
B8 was tested, and the “MBP Kinase Activity” value was “Strong”.
B9 was tested, and the “MBP Kinase Activity” value was “Strong”.
